Measured values published in the supplement of paper PMC9170038.

Tested on: K4 kissing-loop RNA reporter
Assay: apparent KD of K4 kissing-loop reporter; higher = weaker reporter binding
Settings: Eterna round: R107
Description: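 RNA-MaP round R107: designed RNA switches with theophylline, tryptophan, arginine or FMN aptamers are transcribed on-chip within common flanks. They are titrated with a labelled K4 kissing-loop RNA reporter in RNA-MaP buffer (100 mM Tris pH 7.5, 80 mM KCl, 4 mM MgCl2), without ligand or with the indicated ligand. Median apparent KD per design.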

[1] = input ligand: theophylline 20 uM
[2] = input ligand: tryptophan 2.4 mM
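Note: bound reporter read as fluorescence of individual clusters on recovered sequencing chips by microscopy, with normalized cluster intensities fitted with a binding model.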

Sequence	apparent KD of K4 kissing-loop reporter (input ligand: FMN 200 uM) [µM]	apparent KD of K4 kissing-loop reporter (input ligand: arginine 13.2 mM) [µM]	apparent KD of K4 kissing-loop reporter (input ligand: none) [µM]	apparent KD of K4 kissing-loop reporter [1] [µM]	apparent KD of K4 kissing-loop reporter [2] [µM]
CAGAUCACAGAGUGAUGUUCUGUGUCCGAAGGAGCGCGCGAGAGCGCAGGUAGGUCGCGGAUACAGUUGACGUACCAUCUAGACA [Arg A Ex t3b]	0.306	0.244	0.278	0.246	0.269
AGGAUGUAGUGAUGUUAUAUAAGAAGUAAACGAGGACCGGUACGGCCGCCACUCGAAGCGGCUACUAGCGUGUUGCGAGGUGCGC [ExTryptoA.Cd]	0.37	0.324	0.229	0.23	0.197
GCUAAGUGAUGUUUAUGCCGCCGACCGGAUACCAGCUACUAGGCAAGCCCUUGGCAGCCGCUAUGUGACCGAUCAUUAGUUAUGU [theeternabot_exclusion_KL_Theo_A_6]	0.857	0.734	0.913	0.79	0.682
AAUUCAAACUGAAGGAGCGAGCAUUUUGGAGUGAUGUUCCAAGCGAGUGAUGUUCGCAUAGCUCAGGUAGGUCGCAGUUUGGAUA [Same State Arginie B GF 14]	0.143	0.136	0.144	0.143	0.139
GGUGAUGAGCACGAUACCAGCCUCGGAGCCAGUGAUGUUGGCCCAGUUUAGAAUAAGACAGGCCCUUGGCAGCGUGACGAUGGCU [Inorusre]	0.885	0.98	1.02	0.687	0.981
GCAGUGAUGUUGCACGAGUAGGCUGGAGUACGAGGACCGGUACGGCCGCCACUCGUACGAUAGUCGCUAAUUUAUGGAAUGGUGA [#08 K4 Tryptophan A Same State]	0.458	0.381	0.551	0.286	0.419
AAUAAUUUCAGAGGAUAUGCUUUAUUAUGAUUUUUAAAUAAUAAAUGCAGUGAUGUUGCUUAUUAUGCAGAAGGCUGAUUUAUAA [JR_SSFMNB_Sub015]	0.143	0.727	0.747	0.721	0.565
CCUAUCUCGUACGAUACCAGUCAAUGAUCUUUGAUCAAUGCCAUCACCGAGUGAUGUUCGGACCCUUGGCAGCGUAUGAGAUGGG [whbob_Ex_Theo_B_sa105]	0.272	0.207	0.251	0.386	0.242
UGACAUUGCUCAGAUACCAGACUUGAGGAUCACCCAAGUGCCAAAACGUACUAAAUAAAAGUCCCUUGGCAGCUGAGCAAUGUCU [TheoBX 13]	0.0492	0.0459	0.0406	0.088	0.0541
GGAGGGAUCUCGGCCGCCACUCAUAAGAAAUGGGCCUCAGAAAUAUAGUGAUGUUAUGUAAAGAAGAGGACCGGGAGAAAGAAGG [ExTryptoB.Da]	0.39	0.202	0.324	0.218	0.242
AAAUAAAGCAGUCACCCAGUGAUGUUGGAAGGAGCGUGCGAAAGCACAGGUAGGUCGCCAAAAUAAAGUGGCUGCGGCAAAGCCA [#SwitchBubble 25 #K4Early]	0.409	0.428	0.399	0.578	0.305
UAUAUAGUGAUGUUAUAUGGGAAGGAGUUACGAGGACCGGUACGGCCGCCACUCGAAACGAGUGAGGAUUUGGGAGAUUGGGUUU [SSTryptA.S]	0.333	0.211	0.206	0.208	0.232
CGUUUCUCUGUCGAUACCAGCUUCAGUUGGCGGCCAGUGAUGUUGGUAUCGCCGAUGCCAAGCCCUUGGCAGCGACAUGAGACCC [Gezausin]	0.169	0.163	0.193	0.128	0.166
UGUGAACAAAAGUAGAGUGGACCACUAUAGCGAGGACCGGUACGGCCGCCACUCGUACAUGAAUUCAGUGAUGUUGAAAAGAGCU [whbob_EX_Tryp_A_t13]	0.294	0.413	0.307	0.4	0.209
AGGCGGCAUAAUUGACUGAAAAGAAAUUAACGAGGACCGGUACGGCCGCCACUCGAACACCAGUGAUGUUGGUAUGGGAUAAUUU [Exclusion Tryptophan A GF 18]	0.0916	0.0627	0.0529	0.169	0.047
UAUAGAGUGACGGCCGCCACUAUUGUGAUUUAAUUGUUUGAGUGAUGUUUUGAUGUUUGAUUUUGUAGGACCGGGUUAUAUGUUA [zdzzmullin]	0.959	0.718	0.987	0.793	0.788
AAGGACUGCCAGGGAACACACUCAUUAUGGGAGGAUAUGUUAGCUGACAGAAGGCCCAGUGAUGUUGGGCCGGCGGGCUGUCAGG [Diargean]	0.244	0.202	0.218	0.237	0.177
AAGAGAUAGGGAGGAUAUGCCCUAUUGAGAACCGAGUGAUGUUCGGUAGGACAAAUAGUCCACAGGGUAGAAGGCCCACAUCACA [SS FNM B Tesla 2]	0.191	0.213	0.244	0.476	0.267
AUACGCGAUAGCGUAUAUAACUUUUCAGAAGGAGCGUGGAAGUACACAGGUAGGUCGCUGAAUAUAGGACUAGUGAUGUUAGUUA [JR_Nu_SSArginiA_Sub025]	0.195	0.22	0.235	0.218	0.186
ACAGGAUCGAAGAUCCUGAGCAGUCAAAACCGAGGACCGGUACGGCCGCCACUCGGAGUGAUGUUCCGAAGACUGCAAAAUAAAA [#SwitchBubble 3]	1.09	0.76	1.01	1.01	0.692
CGCAGUGAUGUUGCUAUAUUUCUUGAUUAACGAGGACCGGUACGGCCGCCACUCGAUUUCUCUCUAAUCCACUAUGUUGUUUAGA [JR_SSTryptoA_Sub002]	0.39	0.472	0.506	0.524	0.319
UGAUUUAACUGAAGGAGCGGCAAUUGAUAAGUAAAUAUAGUGAUGUUAUAUAAGAGAGAGAGCCAGGUAGGUCGCAGAGGGAGGA [ExArgB.I]	0.205	0.138	0.167	0.17	0.14
